Reference: the supplement of paper PMC7125110
± gives the standard error. This sample holds only a part of the variants without activity.

B1: glmS ribozyme (parent)
chain: AUAAAAGCGCCAGAACUACAGAAAUGUAGUUGACGAGGAGGAGGUUUAUCGAAUUUUCGGCGGAUGCCUCCAAA

Variants of: B1
Test: self-cleavage kobs at 2500 uM GlcN6P; higher = faster cleavage; RNA array
Conditions: with glucosamine-6-phosphate
Method in brief: (§1)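 A hybridised Cy3 probe tracked barcoded ribozyme variants, transcribed in situ by E. coli RNA polymerase on sequenced MiSeq chips, at 37 °C. The variants received 40 μM to 10 mM glucosamine-6-phosphate in HEPES/KCl/Mg(OAc)2 buffer. kobs came from decay fits and kcat and KM from weighted Michaelis–Menten fits.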

Variant | self-cleavage kobs at 2500 uM GlcN6P
G13U U55G C67A | 8.05e-05 ± 1.9e-05 s⁻¹
A15C U30C C68G | 0.000192 ± 6.4e-05 s⁻¹
U30C A36U A48C | < 1e-05 s⁻¹
A33C G38C A48G U56C | < 1e-05 s⁻¹
C10G A33U G35C G41U U54C C70U | < 1e-05 s⁻¹
A6U C11A G29A C50U | < 1e-05 s⁻¹
G40U C50A U55C | < 1e-05 s⁻¹
G13U U56A C71U | 8.21e-05 ± 2.1e-05 s⁻¹
G32C G35A A42U | < 1e-05 s⁻¹
G9U G29A A42G G60C | < 1e-05 s⁻¹
A6C G7C G41A | < 1e-05 s⁻¹
C8G A42G A52U | < 1e-05 s⁻¹
C10G A42G A48C | < 1e-05 s⁻¹
G29U U46C G62C C71G | < 1e-05 s⁻¹
U49C G63U G66C | < 1e-05 s⁻¹
G29C G35U G40U | < 1e-05 s⁻¹
A39G A42C G43A | < 1e-05 s⁻¹
G29C G62A C70G | 3.86e-05 ± 1.9e-05 s⁻¹
C11A A33C A36G U46G G51A G62A | < 1e-05 s⁻¹

Variant | self-cleavage kobs at 2500 uM GlcN6P
C11U A15C G41U G60U | < 1e-05 s⁻¹
G44C A48G | < 1e-05 s⁻¹
C10U G32U G41C U55G | < 1e-05 s⁻¹
G9U G66U U69G | < 1e-05 s⁻¹
U31G U55A C67A | 0.00299 ± 0.00085 s⁻¹
U30C G35C C50A C68A | < 1e-05 s⁻¹
A36U A42G G60U C70A | < 1e-05 s⁻¹
A6U C11A G62A | < 1e-05 s⁻¹
C10U A36U G51C A53C | < 1e-05 s⁻¹
A33G A36C G44C U45A C50U C71A | < 1e-05 s⁻¹
A36G G62A | < 1e-05 s⁻¹
A6G U55A U57G C61A | < 1e-05 s⁻¹
C8A C11U G37C G62A | < 1e-05 s⁻¹
A33C C50A C68A | < 1e-05 s⁻¹
C34G G43C U46G U69G | < 1e-05 s⁻¹
A12G G32C | 2.23e-05 ± 9.3e-06 s⁻¹
A6C G13C U45C | < 1e-05 s⁻¹
A52U C61G G63C G66A | < 1e-05 s⁻¹
G32U A36U G37C U47G A52C C67G | < 1e-05 s⁻¹

Variant | self-cleavage kobs at 2500 uM GlcN6P
A12G U56A U57C | < 1e-05 s⁻¹
C11U A52G C71A | 5.37e-05 ± 2.4e-05 s⁻¹
C8G G40C | < 1e-05 s⁻¹
C11G G29A C70U | 6.76e-05 ± 3.2e-05 s⁻¹
C11U C34U G40C | < 1e-05 s⁻¹
U45A A48U | 0.0011 ± 0.00038 s⁻¹
G63C G66C C67G | < 1e-05 s⁻¹
U46C A48U C50G G51U | < 1e-05 s⁻¹
A12U C16U A33C | 0.000381 ± 7.2e-05 s⁻¹
C10U C16U G32U | 6.59e-05 ± 1.7e-05 s⁻¹
A6G C8U G37C U54C U69C | < 1e-05 s⁻¹
C8G A15C A36G | < 1e-05 s⁻¹
C16G C50A C70A | 8.7e-05 ± 2.4e-05 s⁻¹
C8U G60U C61G C70G | < 1e-05 s⁻¹
C50G A64U C70U | 0.000192 ± 4.3e-05 s⁻¹
U46C C50U C61U | < 1e-05 s⁻¹
A15C U31C C71A | 0.000185 ± 3.9e-05 s⁻¹
C11U G40C G44A G51A C61G C71A | < 1e-05 s⁻¹
C10U G44U U54G U55C | < 1e-05 s⁻¹

Variants of: B1
Test: self-cleavage kobs at 640 uM GlcN6P; higher = faster cleavage; RNA array
Conditions: with glucosamine-6-phosphate
Method in brief: as §1

Variant | self-cleavage kobs at 640 uM GlcN6P
C10G A33U G35C G41U U54C C70U | < 1e-05 s⁻¹
G9A U46C C67U | < 1e-05 s⁻¹
G13U U56A C71U | 0.000105 ± 1.6e-05 s⁻¹
G9A U47A C70U | < 1e-05 s⁻¹
G7C G32C G59A | < 1e-05 s⁻¹
G29U U46C G62C C71G | < 1e-05 s⁻¹
C16A G63U U69A | 0.000106 ± 3.1e-05 s⁻¹
C8G G13C A52U A53U C71U | < 1e-05 s⁻¹
C34A G35U A42C | < 1e-05 s⁻¹
G29A C58U C67G | 0.000115 ± 2.9e-05 s⁻¹
A36G G62A | < 1e-05 s⁻¹
C8A C11U G37C G62A | < 1e-05 s⁻¹
G32U C34U A36G G51A C70G | 8.6e-05 ± 3.2e-05 s⁻¹
A33C C50A C68A | < 1e-05 s⁻¹
G9A G29C G32A G38U | < 1e-05 s⁻¹
G41C G60U U65C C67G C68A | < 1e-05 s⁻¹
U31A G32C G60A G66A | < 1e-05 s⁻¹

Variant | self-cleavage kobs at 640 uM GlcN6P
A15C U46A G60U | < 1e-05 s⁻¹
A42G G43A C67U C68U | 0.000241 ± 0.00011 s⁻¹
G38C U57G | < 1e-05 s⁻¹
A14U G35A G63U | < 1e-05 s⁻¹
G9U G38U C61U | < 1e-05 s⁻¹
C8G G40C | < 1e-05 s⁻¹
U47A C61U U69G | 0.00233 ± 0.0008 s⁻¹
U46C A48U C50G G51U | < 1e-05 s⁻¹
A12U C16U A33C | 0.000251 ± 4.5e-05 s⁻¹
A6G C8U G37C U54C U69C | < 1e-05 s⁻¹
A6C U55G U65G C67U | < 1e-05 s⁻¹
C50G A64U C70U | 0.000173 ± 5.1e-05 s⁻¹
C34A G59U G60A G63U | < 1e-05 s⁻¹
A42U G59C G60A | < 1e-05 s⁻¹
G37A A42C C61A | < 1e-05 s⁻¹
C10U G44U U54G U55C | < 1e-05 s⁻¹

Variants of: B1
Test: self-cleavage kobs at 10000 uM GlcN6P; higher = faster cleavage; RNA array
Conditions: with glucosamine-6-phosphate
Method in brief: as §1

Variant | self-cleavage kobs at 10000 uM GlcN6P
C8G G13C A52U A53U C71U | < 1e-05 s⁻¹
A36G G62A | < 1e-05 s⁻¹
A12G G32C | 3.88e-05 ± 7.6e-06 s⁻¹
A42G G43A C67U C68U | 0.000713 ± 0.00018 s⁻¹
C8G G40C | < 1e-05 s⁻¹
U46C A48U C50G G51U | < 1e-05 s⁻¹
